Measurements taken from patent US20230398116A1, “Agent for reversing resistance to anticancer drugs” (Y'S AC CO., LTD., priority 2020, published 2023).
Blank lines part the entries; values can stand above or below the binder they belong to.

Tests used:
[1] = target: T1, recombinant human IL-26/AK155 monomer, Cat #1375-IL/CF, R&D Systems (human, UniProt Q9NPH9 22-171); assay: ELISA, human IL-26 monomer coated at 0.5 µg/ml, antibody diluted 2-fold from 5 µg/ml, HRP anti-mouse kappa detection
T1 construct: also called recombinant human IL-26 monomer
T1 sequence (looked up): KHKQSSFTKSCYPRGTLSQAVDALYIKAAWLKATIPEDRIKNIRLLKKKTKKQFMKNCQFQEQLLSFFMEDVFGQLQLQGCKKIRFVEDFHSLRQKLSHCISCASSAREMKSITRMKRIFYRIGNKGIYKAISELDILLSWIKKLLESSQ
Procedure: The antigen binding of purified Ch69-10-IgG1, Hu69-10A-IgG1, and Hu69-10B-IgG1 was analyzed by ELISA. ELISA plates were coated overnight at 4° C. with the addition of 0.5 μg/ml human IL-26 (recombinant human IL-26/AK155 monomer, Cat #1375-IL/CF, R&D Systems, Minneapolis, MN) at 100 μl/well in 0.2 M sodium carbonate buffer (pH 9.4). Wells were washed with the wash buffer and blocked with the ELISA buffer. Subsequently, 100 μl/well of test antibody (mouse 69-10, Ch69-10-IgG1, Hu69-10A-IgG1, or Hu69-10B-IgG1) serially diluted 2-fold in RPMI medium starting at 5 μg/ml was added to measure a binding with IL-26. After incubation at room temperature for 1 hour and washing the plates with a wash buffer, a 1/2,000-diluted HRP-conjugated goat anti-human kappa chain polyclonal antibody (Bethyl Laboratories) (for Ch69-10-IgG1, Hu69-10A-IgG1 and Hu69-10B-IgG1) or a 1/2,000-diluted HRP-labeled goat anti-mouse kappa chain polyclonal antibody (Bethyl Laboratories) (for mouse 69-10) in ELISA buffer was added at 100 μl/well to detect bound antibodies. After incubation at room temperature for 30 min and washing with the wash buffer, 100 μl/well of ABTS substrate (Sigma Aldrich) was added to start color development and 100 μl/well of 2% oxalic acid was added to stop the color development. The absorbance was measured at 405 nm.

[2] = target: T2, mouse EphA3 on the surface of E0771 cells (mouse, UniProt P29319 21-983); assay: 2.5D fluorescence intensity plot of stained E0771 cells (FIG. 18)
T2 construct: whole, on cells; Endogenous receptor on E0771 cells; also called cell surface EphA3; EphA3 receptor
T2 sequence (looked up): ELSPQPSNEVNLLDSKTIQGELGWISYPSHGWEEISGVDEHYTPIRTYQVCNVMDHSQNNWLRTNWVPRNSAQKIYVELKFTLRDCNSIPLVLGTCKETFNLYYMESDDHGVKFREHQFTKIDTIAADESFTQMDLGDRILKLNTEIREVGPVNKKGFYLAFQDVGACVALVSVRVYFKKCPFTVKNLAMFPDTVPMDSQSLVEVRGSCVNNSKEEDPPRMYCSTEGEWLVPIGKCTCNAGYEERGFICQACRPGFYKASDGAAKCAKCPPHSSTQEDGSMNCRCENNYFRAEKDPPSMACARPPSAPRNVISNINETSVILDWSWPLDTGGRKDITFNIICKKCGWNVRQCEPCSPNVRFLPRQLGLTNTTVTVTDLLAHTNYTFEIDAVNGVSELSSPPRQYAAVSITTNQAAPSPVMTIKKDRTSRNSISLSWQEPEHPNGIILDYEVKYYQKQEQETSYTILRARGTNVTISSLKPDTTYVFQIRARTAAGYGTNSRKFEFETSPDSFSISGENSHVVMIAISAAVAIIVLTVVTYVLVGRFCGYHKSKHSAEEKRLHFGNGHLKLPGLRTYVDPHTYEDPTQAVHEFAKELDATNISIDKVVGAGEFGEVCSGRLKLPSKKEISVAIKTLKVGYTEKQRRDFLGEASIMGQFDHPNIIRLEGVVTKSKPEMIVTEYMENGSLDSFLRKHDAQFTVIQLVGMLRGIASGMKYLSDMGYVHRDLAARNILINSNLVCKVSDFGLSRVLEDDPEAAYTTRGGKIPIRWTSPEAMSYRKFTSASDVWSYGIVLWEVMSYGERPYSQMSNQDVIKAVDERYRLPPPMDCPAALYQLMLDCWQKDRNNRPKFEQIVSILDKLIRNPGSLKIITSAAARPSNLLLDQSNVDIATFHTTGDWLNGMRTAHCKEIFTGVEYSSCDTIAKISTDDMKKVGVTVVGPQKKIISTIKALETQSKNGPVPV
Procedure: 2.5D intensity plot of EphA3, IL-26, and DAPI signals represents the absolute signal intensity of each pixel. Merged views and individual channels were shown. […] These images show EphA3/IL-26 interaction in E0771 cells. 200×. A representative image of five independent experiments showing similar results is shown.
(§1) E0771 and HCC70 cells (1×10⁵) were cultured for 24 hours in RPMI1640 medium with 10% FCS on Lab-Tek chamber slides (Thermo Fisher Scientific). The cultured cells were stimulated with Alexa Fluor 488 labeled IL-26 (30 ng/ml) in the presence or absence of recombinant human and mouse EphA3-Ig for 1 hour. HCC70 cells were stimulated with IL-26 (30 ng/ml) in the presence or absence of gefitinib (40 μM), a signal inhibitor, and a neutralizing antibody for 24 hours. Subcutaneous tumor samples obtained from mice were fixed in 4% paraformaldehyde (Thermo Fisher Scientific) and embedded in OCT compound (Tissue-Tek (registered trademark), Sakura Finetek, Japan). Cells and slides were immunostained with each antibody and observed using a Zeiss inverted microscope and Axiovision 2.0 program (Carl Zeiss, Germany). The fluorescence intensity was quantified with Image-J software (NIH). The images were captured using a 100×400× objective.

[3] = target: T3, human EphA3 on the surface of HCC70 cells (human, UniProt P29320 21-983); assay: immunofluorescence colocalization on HCC70 cells (FIG. 21)
T3 construct: whole, on cells; Endogenous receptor on HCC70 cells; also called cell surface EphA3; EphA3 receptor
T3 sequence (looked up): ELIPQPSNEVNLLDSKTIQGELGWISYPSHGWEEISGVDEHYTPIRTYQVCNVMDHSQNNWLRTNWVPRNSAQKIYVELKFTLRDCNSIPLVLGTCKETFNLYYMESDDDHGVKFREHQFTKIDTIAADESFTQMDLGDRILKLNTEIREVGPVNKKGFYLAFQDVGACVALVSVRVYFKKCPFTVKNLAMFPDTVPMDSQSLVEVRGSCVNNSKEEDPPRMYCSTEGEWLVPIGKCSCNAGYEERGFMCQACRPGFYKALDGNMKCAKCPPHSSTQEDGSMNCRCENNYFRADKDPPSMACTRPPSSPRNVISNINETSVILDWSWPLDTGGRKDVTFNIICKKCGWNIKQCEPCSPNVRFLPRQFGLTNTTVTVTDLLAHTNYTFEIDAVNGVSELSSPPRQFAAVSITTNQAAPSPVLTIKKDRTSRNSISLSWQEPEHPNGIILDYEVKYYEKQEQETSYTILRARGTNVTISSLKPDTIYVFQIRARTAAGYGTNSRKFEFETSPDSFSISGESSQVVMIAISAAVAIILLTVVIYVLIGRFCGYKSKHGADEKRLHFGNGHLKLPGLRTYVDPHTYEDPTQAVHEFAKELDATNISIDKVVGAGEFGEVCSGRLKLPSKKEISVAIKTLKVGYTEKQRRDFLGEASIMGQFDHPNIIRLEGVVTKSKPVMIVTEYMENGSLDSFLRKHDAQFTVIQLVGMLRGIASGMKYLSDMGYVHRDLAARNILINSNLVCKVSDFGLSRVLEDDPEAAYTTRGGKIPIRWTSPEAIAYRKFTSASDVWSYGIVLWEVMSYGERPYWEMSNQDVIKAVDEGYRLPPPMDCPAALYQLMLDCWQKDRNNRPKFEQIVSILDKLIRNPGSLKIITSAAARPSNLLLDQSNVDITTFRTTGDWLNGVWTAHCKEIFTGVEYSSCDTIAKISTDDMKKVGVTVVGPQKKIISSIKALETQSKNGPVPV
Procedure: IL-26 merged with EphA3 on the cell surface. […] Original magnification 200×. Scale bar=20 μm. Representative images of three independent experiments with similar results are shown.
as §1

EC50 [1]: 0.34 µg/mL
B1: mouse anti-human IL-26 monoclonal antibody clone 69-10 (antibody, V domains shown)
VH: QVTLKESGPGILKPSQTLSLTCSFSGFSLSTSGMGVGWIRQPSGKGLEWLAHIWWDDDKYYNPSLKSQLTISKDTSRNQVFLKITSVDTADTATYYCVRGGITATHYYAMDYWGQGTSVTVSS
VL: DIQMTQSPASQSASLGESVTISCLASQTIGTWLSWYQQKPGKSPQLLIYAATSLADGVPSRFSGSGSGTKFSFKISSLQAEDFVSYYCQQLYSSPWTFGGGTKLEIK
notes: Mouse antibody from a hybridoma; also called mouse 69-10; m69-10

binding result [2]: binds
B2: Recombinant human IL-26 dimer (R&D Systems) (ligand, UniProt Q9NPH9 22-171, looked up)
chain: T1 sequence (looked up)
notes: Bought from R&D Systems and used for cell stimulation; For the immunofluorescence experiments it was labeled with Alexa Fluor 488 (rhIL-26-Alexa 488); also called exogenous IL-26; rhIL-26-Alexa 488
binding result [3]: binds
